Measurements from patent US20170362324A1 (Biogen, published 2017).

Key:
[1] = biological target: T1, human αvβ5 expressed on BaF3 cells (stably transfected with human αv and β5 subunits) (human, UniProt P06756 31-1048; P18084 24-799); assay: FACS on BaF3-hu αvβ5 cells
T1 construct: also called αvβ5-BaF3; BaF3-hu αvβ5
Experimental: FACS Binding Assay: Cells were washed one time in PBS, and then resuspended in FACS buffer (1×PBS, 1% BSA, 1 mM CaCl₂, and 1 mM MgCl₂). 1×10⁶ cells were then incubated on ice for 1 hr in FACS buffer containing the test antibody in a total volume of 50 μl. After incubation, the cells were washed two times with ice cold FACS buffer, resuspended in 50 μl of FACS buffer containing 3 μg/ml goat anti-mouse IgG AlexaFluor488 (Jackson ImmunoResearch), and incubated on ice for 30 min. The cells were then washed twice with ice cold FACS buffer and fixed in 1% PFA overnight. Cell aggregates were removed by filtering through 40 μm filter plates (Millipore) and binding of the labeled secondary antibody was monitored by flow cytometry using a FACS Calibur (BD Biosciences).
(§1) Based on the results described above in Example 4, four humanized ALULA constructs: VH2/VL2, VH4/VL0, VH4/VL2, and VH5/VL2, were selected for further testing. These VH/VL constructs were expressed as fusion proteins with the hybrid, aglycosylated IgG4.P (S228P)/IgG1 (N297Q) domain, and human kappa light chain domain, and purified from the conditioned medium of stably transfected CHO cells. Each humanized ALULA construct was assessed for binding using competition ELISA with murine ALULA and by FACS using human αvβ5-transfected BaF3 cells. Each humanized ALULA construct was also assessed for blocking binding/adhesion to vitronectin by ELISA or cell adhesion assays using BaF3 cells stably transfected with human or cynomolgous monkey αvβ5. The humanized ALULA constructs were compared to a chimeric form of ALULA comprising the murine heavy and light chain variable domains fused to human IgG1 heavy chain and human kappa light chain domains. The four humanized ALULA constructs behaved similarly in the assays, with H4/L2 generally having similar or slightly higher affinity/blocking potency than the other constructs (see, Table 3).

[2] = biological target: T2, human soluble αvβ5 protein (extracellular domains of human αv and β5 integrin subunits) (human, UniProt P06756 31-992; P18084 24-719); assay: ALULA competition ELISA on soluble human αvβ5
T2 construct: also called biotin-αvβ5; hsαvβ5
Experimental: Competition ELISA: A 96-well microtiter plate was coated with 50 μl/well of 5 μg/mL soluble human αvβ5 protein at 4° C. overnight. The plate was washed with wash buffer (0.05% Tween-20 in PBS) four times in an automated plate washer. 300 μl/well of 1% BSA in PBS was added and incubated for 1 hr at 25° C. to block nonspecific binding. The plate was washed as above, and dilutions of humanized antibodies mixed with 1 nM murine ALULA in PBS containing 1% BSA, were added (50 μl/well). The plate was incubated for 1 hr at 25° C., washed, and then incubated for 40 minutes with 100 μl/well of […] goat anti-mouse antibody. Bound antibody was detected using 3,3′,5,5′-tetramethylbenzidine (TMB). Binding was indicated by the absorbency measured at 450 nm.
as §1

[3] = biological target: T1, human αvβ5 expressed on BaF3 cells …; assay: cell-based or functional assay
[4] = biological target: cynomolgus monkey αvβ5 expressed on BaF3 cells (cynomolgus monkey, UniProt A0A2K5WCD3 31-1048; A0A2K5UEB4 24-799); assay: cell-based or functional assay
[5] = biological target: T2, human soluble αvβ5 protein …; assay: αvβ5-vitronectin blocking ELISA
Experimental: Vitronectin Inhibition ELISA: 96-well microtiter plates were coated with 5 μg/ml purified human plasma vitronectin diluted in PBS (50 μl/well) at 4° C. overnight. After the coating solution was removed, the plates were blocked with 300 μl/well of 1% BSA/TBS at 25° C. for 1 hr. The plate was washed with wash buffer (0.05% Tween-20 in TBS containing 1 mM CaCl₂ and 1 mM MgCl₂), and dilutions of humanized antibodies mixed with 1 nM soluble αvβ5 protein in TBS containing 1% BSA, 1 mM CaCl₂ and 1 mM MgCl₂ were added (50 μl/well) and incubated at 25° C. for 1 hr. The plate was washed 4 times with wash buffer in an automated plate washer and incubated sequentially with 50 μl/well of the anti-beta5 monoclonal antibody 15F11 (at 0.5 ug/mL) in for 1 hr at 25° C. in TBS containing 1% BSA, 1 mM CaCl₂ and 1 mM MgCl₂. After washing the plate 4 times with wash buffer, 100 μl/well of a 1:5000 dilution of a peroxidase-conjugated goat anti-mouse antibody in TBS containing 1% BSA, 1 mM CaCl₂ and 1 mM MgCl₂ were added and incubated for 1 hr at 25° C. Bound protein was detected using the TMB substrate and indicated by the absorbency measured at 450 nm.
as §1

[6] = biological target: T2, human soluble αvβ5 protein …; assay: ELISA, Fab blocking of 2 nM soluble αvβ5 binding to immobilized human plasma vitronectin
Experimental: Fab fragments of the four constructs of Example 6 were generated from the corresponding IgG1(N297Q) versions by digestion with papain. The ability of each Fab to block 2 nM soluble αvβ5 binding to immobilized human plasma vitronectin was determined by ELISA.

[7] = biological target: T1, human αvβ5 expressed on BaF3 cells …; assay: FACS binding curves on αvβ5-BaF3 cells, 10,000 cells/experiment; monovalent Fab, not mAb
Experimental: (§2) This experiment was carried out to confirm the affinity of ALULA-H4/L2-IgG4.P(S228P)/IgG1(N297Q) for cell surface expressed αvβ5 stably expressed on murine BaF3 cells. Binding curves were generated using a lower number of cells to ensure that antibody was not simply titrating the receptors on the cell.

[8] = biological target: T1, human αvβ5 expressed on BaF3 cells …; assay: flow cytometry on BaF3 cells co-transfected with human αv and human β5
Experimental: The binding of the H4/L2 antibody (SEQ ID NOs.: 69 and 70) to αvβ5 expressed on the cell surface was determined using flow cytometry on BaF3 cells stably co-transfected with human αv and human β5 integrin subunits. BaF3 cells are a murine IL-3 dependent hematopoietic cell line of indeterminate origin. These cells endogenously express mouse alpha-V (as well as alpha-4, alpha-5, and beta-1 integrins) but no beta-5 or beta-6 integrin.
The H4/L2 antibody was added to cells in FACS Buffer (PBS, 1% BSA, 1 mM CaCl₂, 1 mM MgCl₂) for 30 minutes on ice. After washing, bound antibody was detected with an anti-human-Alexa Fluor® 488 secondary antibody. Cells fixed in 1% paraformaldehyde were collected on a FACS Calibur and mean fluorescence intensity was analyzed using FlowJo software.

[9] = biological target: T1, human αvβ5 expressed on BaF3 cells …; assay: FACS binding curves on αvβ5-BaF3 cells, 10,000 cells/experiment; mAb (bivalent IgG)
Experimental: as §2

[10] = biological target: T2, human soluble αvβ5 protein …; assay: ELISA, purified hsαvβ5 coated at 2 µg/mL, anti-human IgG-HRP detection
Experimental: Purified hsαvβ5 protein was coated directly on a 96-well ELISA plate at 2 μg/mL, and H4/L2 antibody binding was detected using a horseradish peroxidase conjugated donkey anti-human IgG polyclonal antibody. In this format, the EC₅₀ of the H4/L2 antibody for αvβ5 was about 65 pM.

T2 sequence (P06756 31-992 limits assumed, chain 1 of 2): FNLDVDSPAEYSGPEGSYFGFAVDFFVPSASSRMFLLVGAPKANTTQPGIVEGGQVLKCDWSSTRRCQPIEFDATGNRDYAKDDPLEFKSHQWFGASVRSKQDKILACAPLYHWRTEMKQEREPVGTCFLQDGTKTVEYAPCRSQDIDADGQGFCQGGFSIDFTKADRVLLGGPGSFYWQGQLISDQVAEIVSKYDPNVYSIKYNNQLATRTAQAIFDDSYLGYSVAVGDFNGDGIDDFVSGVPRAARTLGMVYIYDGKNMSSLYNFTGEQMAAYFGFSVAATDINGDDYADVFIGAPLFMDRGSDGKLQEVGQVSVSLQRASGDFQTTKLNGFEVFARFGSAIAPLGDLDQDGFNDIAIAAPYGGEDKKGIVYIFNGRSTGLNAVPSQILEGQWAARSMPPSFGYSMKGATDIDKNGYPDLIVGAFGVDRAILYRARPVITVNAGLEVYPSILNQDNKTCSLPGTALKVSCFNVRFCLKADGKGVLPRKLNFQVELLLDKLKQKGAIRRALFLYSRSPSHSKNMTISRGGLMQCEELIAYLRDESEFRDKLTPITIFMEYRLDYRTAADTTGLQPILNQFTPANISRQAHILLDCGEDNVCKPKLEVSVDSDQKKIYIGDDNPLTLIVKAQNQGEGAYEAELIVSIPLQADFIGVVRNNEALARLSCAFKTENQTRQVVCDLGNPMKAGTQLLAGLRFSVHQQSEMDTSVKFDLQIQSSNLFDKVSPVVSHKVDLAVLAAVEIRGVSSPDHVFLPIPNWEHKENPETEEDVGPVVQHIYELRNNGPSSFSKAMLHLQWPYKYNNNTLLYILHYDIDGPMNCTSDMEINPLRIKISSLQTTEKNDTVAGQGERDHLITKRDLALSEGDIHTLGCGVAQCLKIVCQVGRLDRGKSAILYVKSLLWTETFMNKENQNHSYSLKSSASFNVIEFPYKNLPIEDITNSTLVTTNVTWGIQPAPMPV
T2 sequence (P18084 24-719 limits assumed, chain 2 of 2): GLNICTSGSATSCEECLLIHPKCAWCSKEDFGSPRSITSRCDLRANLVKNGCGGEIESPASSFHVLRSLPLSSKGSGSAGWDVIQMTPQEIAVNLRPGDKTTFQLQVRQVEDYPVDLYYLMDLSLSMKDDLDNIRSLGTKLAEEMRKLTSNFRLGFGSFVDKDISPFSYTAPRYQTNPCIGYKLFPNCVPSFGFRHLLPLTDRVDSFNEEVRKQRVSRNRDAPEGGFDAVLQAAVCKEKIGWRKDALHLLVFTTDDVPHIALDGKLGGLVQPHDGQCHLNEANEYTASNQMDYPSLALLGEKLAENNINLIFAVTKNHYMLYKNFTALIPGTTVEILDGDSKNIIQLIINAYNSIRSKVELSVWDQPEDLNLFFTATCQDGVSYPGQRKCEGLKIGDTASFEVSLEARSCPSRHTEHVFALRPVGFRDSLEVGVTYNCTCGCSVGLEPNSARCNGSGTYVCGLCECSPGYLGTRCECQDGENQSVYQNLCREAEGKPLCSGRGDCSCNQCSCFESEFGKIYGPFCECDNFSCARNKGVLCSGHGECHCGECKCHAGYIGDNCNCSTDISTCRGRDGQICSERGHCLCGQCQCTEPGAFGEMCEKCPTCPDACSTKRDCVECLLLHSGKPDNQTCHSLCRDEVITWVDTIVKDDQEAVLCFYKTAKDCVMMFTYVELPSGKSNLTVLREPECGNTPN
T1 sequence (P06756 31-1048 limits assumed, chain 1 of 2): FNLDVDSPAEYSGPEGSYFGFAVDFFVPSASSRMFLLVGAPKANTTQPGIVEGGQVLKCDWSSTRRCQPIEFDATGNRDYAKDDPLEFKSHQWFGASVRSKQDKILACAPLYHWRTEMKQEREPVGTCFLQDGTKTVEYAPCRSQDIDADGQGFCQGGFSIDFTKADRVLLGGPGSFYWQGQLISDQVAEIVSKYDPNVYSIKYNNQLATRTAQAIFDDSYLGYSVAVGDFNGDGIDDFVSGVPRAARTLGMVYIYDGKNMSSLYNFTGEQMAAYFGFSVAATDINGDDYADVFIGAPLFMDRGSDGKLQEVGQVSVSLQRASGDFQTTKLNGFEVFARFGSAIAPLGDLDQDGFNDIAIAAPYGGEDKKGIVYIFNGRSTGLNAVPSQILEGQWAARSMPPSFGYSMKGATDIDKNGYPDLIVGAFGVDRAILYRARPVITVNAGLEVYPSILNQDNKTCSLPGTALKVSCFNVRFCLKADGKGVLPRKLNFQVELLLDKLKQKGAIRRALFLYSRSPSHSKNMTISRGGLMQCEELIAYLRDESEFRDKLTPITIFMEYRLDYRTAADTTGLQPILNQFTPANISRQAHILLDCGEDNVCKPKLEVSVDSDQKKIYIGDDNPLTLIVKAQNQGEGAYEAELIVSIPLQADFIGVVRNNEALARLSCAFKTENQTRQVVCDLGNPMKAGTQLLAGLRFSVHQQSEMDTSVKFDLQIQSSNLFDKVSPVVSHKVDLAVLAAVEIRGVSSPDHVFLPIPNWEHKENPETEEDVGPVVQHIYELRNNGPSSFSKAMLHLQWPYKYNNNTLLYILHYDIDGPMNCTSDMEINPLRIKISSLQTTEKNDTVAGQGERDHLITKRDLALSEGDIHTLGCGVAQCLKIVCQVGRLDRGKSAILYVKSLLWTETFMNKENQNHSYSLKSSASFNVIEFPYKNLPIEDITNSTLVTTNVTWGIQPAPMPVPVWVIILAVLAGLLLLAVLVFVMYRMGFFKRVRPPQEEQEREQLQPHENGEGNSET
T1 sequence (P18084 24-799 limits assumed, chain 2 of 2): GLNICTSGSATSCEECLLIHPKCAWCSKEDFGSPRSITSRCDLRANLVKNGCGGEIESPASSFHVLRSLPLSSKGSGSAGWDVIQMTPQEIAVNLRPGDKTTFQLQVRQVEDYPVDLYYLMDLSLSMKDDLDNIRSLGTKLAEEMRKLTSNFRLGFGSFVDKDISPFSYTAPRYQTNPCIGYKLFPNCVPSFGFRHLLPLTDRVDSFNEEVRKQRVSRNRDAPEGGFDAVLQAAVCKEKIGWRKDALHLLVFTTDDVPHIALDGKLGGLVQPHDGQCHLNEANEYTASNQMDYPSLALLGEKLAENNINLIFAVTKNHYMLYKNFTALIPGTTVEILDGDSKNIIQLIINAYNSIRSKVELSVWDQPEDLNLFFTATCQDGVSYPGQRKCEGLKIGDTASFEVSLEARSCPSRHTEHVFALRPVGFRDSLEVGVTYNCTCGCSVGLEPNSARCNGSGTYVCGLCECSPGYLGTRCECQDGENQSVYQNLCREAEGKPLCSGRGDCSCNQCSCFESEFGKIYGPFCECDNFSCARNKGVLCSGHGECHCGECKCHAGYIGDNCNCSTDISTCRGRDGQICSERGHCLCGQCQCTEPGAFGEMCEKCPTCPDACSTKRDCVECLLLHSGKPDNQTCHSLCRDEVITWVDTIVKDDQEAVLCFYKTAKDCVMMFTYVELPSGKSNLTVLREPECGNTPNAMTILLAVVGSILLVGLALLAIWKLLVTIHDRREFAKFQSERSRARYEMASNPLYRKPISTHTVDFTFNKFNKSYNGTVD

Binder | EC50 [1] [nM] | IC50 [2] [nM] | BaF3-hu αvβ5 Cell adhesion to vitronectin (IC50, nM) [3] [nM] | BaF3-cyno αvβ5 Cell adhesion to vitronectin (IC50, nM) [4] [nM] | IC50 [5] [nM] | Fold change (IC50 against mouse chimeric ALULA) [6] [fold] | IC50 [6] [nM] | Kd [7] [nM] | Fold chg. (EC50 against mouse chimeric ALULA) [1] [fold] | Fold chg. (IC50 against mouse chimeric ALULA) [2] [fold] | BaF3-hu αvβ5 Cell adhesion to vitronectin, Fold chg. (against mouse chimeric ALULA) [3] [fold] | BaF3-cyno αvβ5 Cell adhesion to vitronectin, Fold chg. (against mouse chimeric ALULA) [4] [fold] | EC50 [8] [nM] | Fold chg. (IC50 against mouse chimeric ALULA) [5] [fold] | Kd [9] [nM] | EC50 [10] [nM]
Mouse chimeric ALULA (murine ALULA variable domains fused to human IgG1 heavy chain and human kappa light chain domains) (antibody, V domains shown, also called chimeric form of ALULA; chimeric murine antibody) VH: EVQVQQSGTVLARPGASVKMSCKASGYTFTSYWMHWVKQRPGQGLEWIGAIYPGNSDTSYNQKFKGKAKLTAVTSPNTAYMELSSLTNEDSAVYYCTTTTYGYDWFAYWGQGTLVTVSA VL: NIMMTQSPSSLTVSAGEKVTMSCKSSQSVLYSSNQKNYLAWYQQKPGQSPKLLIYWASTRESGVPDRFTGSGSGTDFTLTISSVQAEDLAVYYCHQYLSSLTFGAGTKLELK | 5.06 | 1.81 | 0.17 | 0.61 | 1.6 | – | – | – | – | – | – | – | – | – | – | –
VH4/VL2 Fab fragment (Fab, V domains shown, also called H4/L2 (Fab source); H4L2 hIgG1 Fab) VH: EVQVVQSGGGLVKPGESLRLSCKASGYTFTSYWMHWVKQAPGKGLEWVGAIYPGNSDTSYNQKFKGKFTISADTSPNTAYLQMNSLKTEDTAVYYCTTTTYGYDWFAYWGQGTLVTVSS VL: NIQMTQSPSSLSASVGDRVTMSCKSSQSVLYSSNQKNYLAWYQQKPGKSPKLLIYWASTRESGVPDRFTGSGSGTDFTLTISSLQPEDFATYYCHQYLSSLTFGQGTKLEIK | – | – | – | – | – | 0.9 | 4.3 | 0.42 | – | – | – | – | – | – | – | –
ALULA-H4/L2-IgG4.P(S228P)/IgG1(N297Q) (antibody, V domains shown, Hybrid aglycosylated IgG4.P (S228P)/IgG1 (N297Q) heavy chain, human kappa light chain; also called VH4/VL2 (Agly-IgG4P/G1); H4/L2 antibody) VH: EVQVVQSGGGLVKPGESLRLSCKASGYTFTSYWMHWVKQAPGKGLEWVGAIYPGNSDTSYNQKFKGKFTISADTSPNTAYLQMNSLKTEDTAVYYCTTTTYGYDWFAYWGQGTLVTVSS VL: NIQMTQSPSSLSASVGDRVTMSCKSSQSVLYSSNQKNYLAWYQQKPGKSPKLLIYWASTRESGVPDRFTGSGSGTDFTLTISSLQPEDFATYYCHQYLSSLTFGQGTKLEIKR | 2.92 | 1.84 | 0.1 | 0.32 | 1.06 | – | – | – | 0.6 | 1 | 0.6 | 0.5 | 3 | 0.7 | 0.08 | ~0.065
VH2/VL2 Agly-IgG4.P (S228P)/IgG1 (N297Q) (antibody, V domains shown, also called VH2/VL2 (Agly-IgG4P/G1); H2/L2) VH: EVQVVQSGGGLVKPGESLRLSCAASGYTFTSYWMHWVKQAPGKGLEWVGAIYPGNSDTSYNQKFKGKFTISADTSSNTAYLQMNSLKTEDTAVYYCTTTTYGYDWFAYWGQGTLVTVSS VL: NIQMTQSPSSLSASVGDRVTMSCKSSQSVLYSSNQKNYLAWYQQKPGKSPKLLIYWASTRESGVPDRFTGSGSGTDFTLTISSLQPEDFATYYCHQYLSSLTFGQGTKLEIKR | 5.73 | 2.61 | 0.3 | 0.61 | 1.74 | – | – | – | 1.1 | 1.4 | 1.8 | 1 | – | 1.1 | – | –
VH5/VL2 Agly-IgG4.P (S228P)/IgG1 (N297Q) (antibody, V domains shown, also called VH5/VL2 (Agly-IgG4P/G1); H5/L2) VH: EVQVQQSGGGLVKPGGSLRLSCKASGYTFTSYWMHWVKQAPGKGLEWVGAIYPGNSDTSYNQKFKGKATLSAVTSPNTAYLQMNSLKTEDTAVYYCTTTTYGYDWFAYWGQGTLVTVSS VL: NIQMTQSPSSLSASVGDRVTMSCKSSQSVLYSSNQKNYLAWYQQKPGKSPKLLIYWASTRESGVPDRFTGSGSGTDFTLTISSLQPEDFATYYCHQYLSSLTFGQGTKLEIKR | 2.9 | 1.85 | 0.29 | 0.63 | 1.24 | – | – | – | 0.5 | 1 | 1.7 | 1 | – | 0.8 | – | –
VH4/VL0 Agly-IgG4.P (S228P)/IgG1 (N297Q) (antibody, V domains shown, also called VH4/VL0 (Agly-IgG4P/G1); H4/L0) VH: EVQVVQSGGGLVKPGESLRLSCKASGYTFTSYWMHWVKQAPGKGLEWVGAIYPGNSDTSYNQKFKGKFTISADTSPNTAYLQMNSLKTEDTAVYYCTTTTYGYDWFAYWGQGTLVTVSS VL: DIQMTQSPSSVSASVGDRVTITCKSSQSVLYSSNQKNYLAWYQQKPGKAPKLLIYWASTRESGVPSRFSGSGSGTDFTLTISSLQPEDFATYYCHQYLSSLTFGQGTKVEIKR | 2.52 | 1.84 | 0.09 | 0.43 | 1.52 | – | – | – | 0.5 | 1 | 0.5 | 0.7 | – | 1 | – | –
